These results are taken from paper PMC8197658.

One data set addresses SALL4A (full-length) (Homo sapiens, UniProt Q9UJQ4 1-1053). Briefly: EMSA. (In general: A gel shift assay detects complexes by their altered migration in electrophoresis.)
For a further data set, the target named is T1, SALL4 ZFC4 (UniProt Q9UJQ4 864-929).
T1 sequence: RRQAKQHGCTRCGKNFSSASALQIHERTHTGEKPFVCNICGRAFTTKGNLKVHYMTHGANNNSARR
Briefly: ITC. (In ITC the heat of successive injections is recorded.)

SALL4A (full-length), sequence (Q9UJQ4 whole entry): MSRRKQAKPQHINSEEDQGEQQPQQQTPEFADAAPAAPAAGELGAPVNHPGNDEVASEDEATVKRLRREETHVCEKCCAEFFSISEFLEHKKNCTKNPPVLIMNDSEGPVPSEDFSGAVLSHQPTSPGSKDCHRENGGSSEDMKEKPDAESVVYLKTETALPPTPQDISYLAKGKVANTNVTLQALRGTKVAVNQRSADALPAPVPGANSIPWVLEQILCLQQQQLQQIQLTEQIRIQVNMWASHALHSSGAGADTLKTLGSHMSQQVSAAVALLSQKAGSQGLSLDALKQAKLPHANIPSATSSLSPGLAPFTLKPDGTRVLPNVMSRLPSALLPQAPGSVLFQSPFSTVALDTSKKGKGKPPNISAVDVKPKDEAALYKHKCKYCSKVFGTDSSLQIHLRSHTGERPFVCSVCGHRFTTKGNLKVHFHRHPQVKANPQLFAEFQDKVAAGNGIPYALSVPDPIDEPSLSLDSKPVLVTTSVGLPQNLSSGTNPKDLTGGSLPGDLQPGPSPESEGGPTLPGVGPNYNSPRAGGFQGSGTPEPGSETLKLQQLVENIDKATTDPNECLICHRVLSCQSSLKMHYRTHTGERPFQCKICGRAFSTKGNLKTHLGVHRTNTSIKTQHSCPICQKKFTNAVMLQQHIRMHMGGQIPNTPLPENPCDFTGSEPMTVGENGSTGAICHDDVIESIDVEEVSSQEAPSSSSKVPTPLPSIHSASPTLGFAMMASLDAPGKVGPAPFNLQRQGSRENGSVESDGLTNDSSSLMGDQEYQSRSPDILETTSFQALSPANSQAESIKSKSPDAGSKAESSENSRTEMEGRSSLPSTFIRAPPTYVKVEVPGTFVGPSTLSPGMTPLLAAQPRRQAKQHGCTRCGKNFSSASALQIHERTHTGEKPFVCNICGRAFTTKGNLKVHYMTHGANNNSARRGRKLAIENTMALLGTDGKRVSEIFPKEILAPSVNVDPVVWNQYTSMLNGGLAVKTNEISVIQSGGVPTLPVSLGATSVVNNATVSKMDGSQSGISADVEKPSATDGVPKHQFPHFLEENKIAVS

B1: KDM3A EMSA WT oligo (dsDNA)
DNA 1: TCTTCATTTATCCTTCAAAA
DNA 2: TTTTGAAGGATAAATGAAGA
Consider B1, for which the binding result with SALL4A (full-length) is given as “binds”.

B2: ITC Mutant oligo 2 (dsDNA)
DNA 1: GATAAACGCTTG
DNA 2: CAAGCGTTTATC
Regarding B2, the binding result with SALL4 ZFC4 is given as “no binding”.

B3: ITC Mutant oligo 1 (dsDNA)
DNA 1: GAGTCGCTAATG
DNA 2: CATTAGCGACTC
Take B3: the binding result with SALL4 ZFC4 was “no binding”.

B4: KDM3A EMSA Mutant oligo (dsDNA)
DNA 1: TCTTCTTTTAACCTTCAAAA
DNA 2: TTTTGAAGGTTAAAAGAAGA
As to B4, the binding result with SALL4A (full-length) is listed as “no binding”.
